B1: LINE1-mini (parent)
chain: GGCAGAGCUCAACACAGCGUGGCAAAGUGGCUGUGGCUAGACUGCC

Variants of: B1
Experiment: self-cleavage, relative activity (ratio to wild type); higher = more cleavage; in vitro, sequencing; the parent is a self-cleaving ribozyme

| Variant | self-cleavage |
| --- | --- |
| GGCAGAGCUCAACAAAGCGUGGUAAAGUGGCUGUGGCUAGACUGCC | 0.14 |
| GGCAGAGCUCAACAAAGCGUGGAAAAGUGGCUGUGGCUAGACUGCC | 0.18 |
| GGCAGAGCUCAACAAAGCGUGGGAAAGUGGCUGUGGCUAGACUGCC | 0.05 |
| GGCAGAGCUCAACAAAGCGAGGCAAAGUGGCUGUGGCUAGACUGCC | 0.11 |
| GGCAGAGCUCAACAAAGCGGGGCAAAGUGGCUGUGGCUAGACUGCC | 0.08 |
| GGCAGAGCUCAACAAAGCGCGGCAAAGUGGCUGUGGCUAGACUGCC | 0.04 |
| GGCAGAGCUCAACAAAGCGUGGCAAACUGGCUGUGGCUAGACUGCC | 0.1 |
| GGCAGAGCUCAACAAAGCGUGGCAAAUUGGCUGUGGCUAGACUGCC | 0.09 |
| GGCAGAGCUCAACAAAGCGUGGCAAAAUGGCUGUGGCUAGACUGCC | 0.15 |
| GGCAGAGCUCAACAAAGCGUGGCAAAGUGGCUGUGGCUAGACUUCC | 0.04 |
| GGCAGAGCUCAACAAAGCGUGGCAAAGUGGCUGUGGCUAGACUACC | 0.08 |
| GGCAGAGCUCAACAAAGCGUGGCAAAGUGGCUGUGGCUAGACUCCC | 0.04 |
| GGCAGAGCUCAACAAAGCGUGGCAAAGUGGCGGUGGCUAGACUGCC | 0.06 |
| GGCAGAGCUCAACAAAGCGUGGCAAAGUGGCAGUGGCUAGACUGCC | 0.06 |
| GGCAGAGCUCAACAAAGCGUGGCAAAGUGGCCGUGGCUAGACUGCC | 0.07 |
| GGCAGAGCUCAACAAAGCGUGACAAAGUGGCUGUGGCUAGACUGCC | 0.28 |
| GGCAGAGCUCAACAAAGCGUGUCAAAGUGGCUGUGGCUAGACUGCC | 0.08 |
| GGCAGAGCUCAACAAAGCGUGCCAAAGUGGCUGUGGCUAGACUGCC | 0.06 |
| GGCAGAGCUCAACAAAGCGUGGCAAAGUGGCUGUGGCAAGACUGCC | 0.05 |

| Variant | self-cleavage |
| --- | --- |
| GGCAGAGCUCAACAAAGCGUGGCAAAGUGGCUGUGGCCAGACUGCC | 0.07 |
| GGCAGAGCUCAACAAAGCGUGGCAAAGUGGCUGUGGCGAGACUGCC | 0.07 |
| GGCAGAGCUCAACAAACCGUGGCAAAGUGGCUGUGGCUAGACUGCC | 0.04 |
| GGCAGAGCUCAACAAAUCGUGGCAAAGUGGCUGUGGCUAGACUGCC | 0.09 |
| GGCAGAGCUCAACAAAACGUGGCAAAGUGGCUGUGGCUAGACUGCC | 0.14 |
| GGCAGAGCUCAACAGAGGGUGGCAAAGUGGCUGUGGCUAGACUGCC | 0.05 |
| GGCAGAGCUCAACAGAGUGUGGCAAAGUGGCUGUGGCUAGACUGCC | 0.04 |
| GGCAGAGCUCAACAGAGAGUGGCAAAGUGGCUGUGGCUAGACUGCC | 0.09 |
| GGCAGAGCUCAACAGAGCGUGGCAAAGUGGCUGUGGCUAGACUGCG | 0.03 |
| GGCAGAGCUCAACAGAGCGUGGCAAAGUGGCUGUGGCUAGACUGCA | 0.11 |
| GGCAGAGCUCAACAAAGCGUGGCAAAGUAGCUGUGGCUAGACUGCC | 0.16 |
| GGCAGAGCUCAACAAAGCGUGGCAAAGUUGCUGUGGCUAGACUGCC | 0.12 |
| GGCAGAGCUCAACAAAGCGUGGCAAAGUCGCUGUGGCUAGACUGCC | 0.18 |
| GGCAGAGCUCAACAGAGCGUGGCAAAGUGGCUGUGGCUAGACUGAC | 0.02 |
| GGCAGAGCUCAACAGAGCGUGGCAAAGUGGCUGUGGCUAGACUGUC | 0.05 |
| GGCAGAGCUCAACAGAGCGUGGCAAAGUGGCUGUGGCUAGACUGGC | 0.08 |
| GGCAGAGCUCAACAAAGCGUGGCAAAGUGGCUGUGGCUAGACUGGC | 0.05 |
| GGCAGAGCUCAACAAAGCGUGGCAAAGUGGCUGUGGCUAGACUGAC | 0.08 |
| GGCAGAGCUCAACAAAGCGUGGCAAAGUGGCUGUGGCUAGACUGUC | 0.12 |

| Variant | self-cleavage |
| --- | --- |
| GGCAGAGCUCAACAGUGCGUGGCAAAGUGGCUGUGGCUAGACUGCC | 0.05 |
| GGCAGAGCUCAACAGCGCGUGGCAAAGUGGCUGUGGCUAGACUGCC | 0.11 |
| GGCAGAGCUCAACAGGGCGUGGCAAAGUGGCUGUGGCUAGACUGCC | 0.05 |
| GGCAGAGCUCAACAAAGCGUGGCAAAGUGGCUGUCGCUAGACUGCC | 0.05 |
| GGCAGAGCUCAACAAAGCGUGGCAAAGUGGCUGUUGCUAGACUGCC | 0.08 |
| GGCAGAGCUCAACAAAGCGUGGCAAAGUGGCUGUAGCUAGACUGCC | 0.1 |
| GGCAGAGCUCAACAAAGCGUGGCAAAGUGGCUGGGGCUAGACUGCC | 0.05 |
| GGCAGAGCUCAACAAAGCGUGGCAAAGUGGCUGAGGCUAGACUGCC | 0.59 |
| GGCAGAGCUCAACAAAGCGUGGCAAAGUGGCUGCGGCUAGACUGCC | 0.06 |
| GGCAGAGCUCAACAAAGCUUGGCAAAGUGGCUGUGGCUAGACUGCC | 0.09 |
| GGCAGAGCUCAACAAAGCCUGGCAAAGUGGCUGUGGCUAGACUGCC | 0.14 |
| GGCAGAGCUCAACAAAGCAUGGCAAAGUGGCUGUGGCUAGACUGCC | 0.06 |
| GGCAGAGCUCAACAGAGCGUGGCAAAGUGGCUGUGGGUAGACUGCC | 0.02 |
| GGCAGAGCUCAACAGAGCGUGGCAAAGUGGCUGUGGAUAGACUGCC | 0.06 |
| GGCAGAGCUCAACAGAGCGUGGCAAAGUGGCUGUGGUUAGACUGCC | 0.04 |
| GGCAGAGCUCAACAGAGCGUGGCAAAGUGGAUGUGGCUAGACUGCC | 0.02 |
| GGCAGAGCUCAACAGAGCGUGGCAAAGUGGUUGUGGCUAGACUGCC | 0.04 |
| GGCAGAGCUCAACAGAGCGUGGCAAAGUGGGUGUGGCUAGACUGCC | 0.03 |

Source: the RNAGym collection of RNA variant scans (doi:10.7554/elife.90254)
